Patent US8821862B2, “Soluble β-N-acetylglucosaminidase based antibiofilm compositions and uses thereof” (Kane Biotech Inc., priority 2002, dated 2014)

Key:
[1] = test system: A. actinomycetemcomitans strain CU1000 (wild-type) biofilms; test: Biofilm detachment assay (crystal violet); assay type: cell-based
Text: (§1) Bacterial strains, media, and growth conditions. A. actinomycetemcomitans strain CU1000 (serotype f) was isolated from a person with localized aggressive periodontitis (Fine et al., Microbiol. 1999, 145: 1335-1347). […] An isogenic PGA mutant strain HW1018 (CU1000 pgaC::IS903φKan) was isolated by randomly mutagenizing CU1000 with transposon IS903φKan and selecting mutants that produced white colonies on Congo red agar, as previously described (Kaplan et al., 2003; Kaplan et al., J. Bacteriol. 2004, 186: 8213-8220). Like other pgaC mutant strains, HW1018 was completely deficient in PGA production, but still formed tenacious biofilms on plastic surfaces (Kaplan et al., 2004). Bacteria were grown in trypticase soy broth supplemented with […] and 8 g/L glucose. Solid medium was supplemented with 15 g/L agar. All cultures were incubated statically at 37° C. in 10% CO2.
(§2) Biofilm Cultures. Biofilms were grown in 17 mm×100 mm culture tubes (untreated polystyrene; Falcon #352051) or 96-well microtiter plates (tissueculture-treated polystyrene, flat bottoms; Falcon #353072). Culture vessels were inoculated with a 1:10 dilution of inoculum in fresh broth (1 mL for tubes or 200 μL for microplates) and incubated for 24 h.
(§3) Crystal Violet Assay. Biofilm biomass was visualized and quantitated by means of a crystal violet binding assay as previously described (Kaplan et al., Antimicrob. Agents Chemother. 2004, 48: 2633-2636). Briefly, biofilms were rinsed with water to remove loosely attached cells, stained for 1 min with Gram's crystal violet (200 μL for microplates and 1 mL for tubes), rinsed, dried, and photographed. For quantitation of biofilms grown in microplates, biofilms were de-stained with 200 μL of 33% acetic acid for 5 min, and the absorbance of the crystal violet solution was measured directly in the plate by means of a BioRad Benchmark microtiter plate-reader set at 590 nm. Crystal violet binds to bacterial biofilms, but not to polystyrene (O'Toole & Kolter, Mol. Microbiol. 1998, 28: 449-461).
(§4) Biofilm Detachment Assay. Biofilms were rinsed with water and treated with 200 μL (for microplates) or 1 mL (for tubes) of DispersinB™ (20 μg/mL in PBS) or SDS (0.001-1% in PBS). After a five- or 30-minute incubation at 37° C., biofilms were rinsed with water and stained with crystal violet as described above. In some assays, biofilms were first treated with DispersinB™ for 5 or 30 min, rinsed, and then treated with SDS. All detachment assays were performed in duplicate wells or tubes. All assays were performed on at least 3 separate occasions, with similar results.

[2] = test system: A. actinomycetemcomitans strain HW1018 (PGA mutant) biofilms; test: Biofilm detachment assay (crystal violet); assay type: cell-based; details: DispersinB 20 μg/mL; either culture vessel
Text: as §1, §2, §3, §4

[3] = Shelf life of purified DispersinB; assay type: physicochemical
S. epidermidis = test: In vitro microplate growth and biofilm formation assay (crystal violet); assay type: cell-based, Staphylococcus epidermidis; details: DispersinB at different concentrations, TSB, 37° C., 24 hours
Experimental: An overnight culture of S. epidermidis in Tryptic Soy Broth (TSB) was used as inoculum. Bacteria were grown in TSB on a 96-well microtiterplate in the absence and presence of each compound (DispersinB™ or TCSN) at different concentrations separately and together (DispersinB™+TCSN). Concentrations of DispersinB™ included 25 ng/ml, 50 ng/ml, and 100 ng/ml. Concentrations of TCSN included 25 μg/ml, 50 μg/ml, and 100 μg/ml. The plate was incubated at 37° C. for 24 hours. The growth and biofilm was measured as explained in Example 1.
The experiment was performed as explained in Example 1.
An in vitro microtiter assay was performed to determine the effect of DispersinB™ wound gel on the growth and biofilm formation of Staphylococcus epidermidis. S. epidermidis biofilm was grown in tryptic soy broth (TSB). S. epidermidis was grown in 96-well microtiter plate in the absence and presence of DispersinB™ wound gel at different concentrations. The plate was incubated at 37° C. for 24 hours.
In vitro microplate assay was performed to determine the synergistic effect of DispersinB™ and triclosan (an antimicrobial agent) on the growth and biofilm formation of S. epidermidis. Overnight culture of S. epidermidis in Tryptic Soy Broth (TSB) was used as inoculum. […]

[4] = test system: biofilm-embedded S. epidermidis; test: In vitro biofilm killing assay after DispersinB pre-treatment; assay type: cell-based, Staphylococcus epidermidis; details: DispersinB alone, 20 μg/ml, 30 min
Experimental: An in vitro biofilm assay was performed to determine the effect of DispersinB™ pre-treatment on the susceptibility of S. epidermidis to SDS. S. epidermidis biofilm grown in tubes were pretreated with PBS or DispersinB™ (20 μg/ml) for 30 min, and then treated with SDS (0.2 mg/ml) for 5 min at 37° C. […] However, SDS caused a 1.5 log unit decrease in the number of CFUs in tubes pretreated with […] biofilm embedded cells more susceptible to SDS.
An in vitro biofilm assay was performed to determine the effect of DispersinB™ pre-treatment on the susceptibility of biofilm-embedded S. epidermidis to CHX. S. epidermidis biofilm grown in tubes were pretreated with PBS or DispersinB™ (20 μg/ml) for 30 min, and then treated with CHX (0.2 μg/ml) for 5 min at 37° C. […] However, CHX caused a 1.6 log decrease of CFU in tubes pretreated with DispersinB™. DispersinB™ pretreatment made biofilm-embedded cells more susceptible to CHX.
An in vitro biofilm assay was performed to determine the effect of DispersinB™ pre-treatment on the susceptibility of S. epidermidis to BKC. S. epidermidis biofilm grown in tubes were pretreated with PBS or DispersinB™ (20 μg/ml) for 30 min, and then treated with BKC (0.4 μg/ml) for 60 min at 37° C. […] However, BKC caused a 2.2 log decrease in CFU in tubes pretreated with DispersinB™. DispersinB™ pre-treatment made biofilm-embedded cells more susceptible to BKC.
An in vitro biofilm assay was performed to determine the effect of DispersinB™ pre-treatment on susceptibility of S. epidermidis to silver nanopowder (SNP). S. epidermidis biofilm grown in tubes were pretreated with PBS or DispersinB™ (20 μg/ml) for 30 min, and then treated with SNP (0.03125 μg/ml) for 60 min at 37° C. […] However, SNP caused a 1.5 log decrease in CFU in tubes pretreated with DispersinB™. DispersinB™ pre-treatment made biofilm embedded cells more susceptible to SNP treatment.

B1: DispersinB™: 381 amino acid soluble β-N-acetylglucosaminidase encoded by dspB of A. actinomycetemcomitans; mature polypeptide SEQ ID NO:11 (protein)
chain: NCCVKGNSIYPQKTSTKQTGLMLDIARHFYSPEVIKSFIDTISLSGGNFLHLHFSDHENYAIESHLLNQRAENAVQGKDGIYINPYTGKPFLSYRQLDDIKAYAKAKGIELIPELDSPNHMTAIFKLVQKDRGVKYLQGLKSRQVDDEIDITNADSITFMQSLMSEVIDIFGDTSQHFHIGGDEFGYSVESNHEFITYANKLSYFLEKKGLKTRMWNDGLIKNTFEQINPNIEITYWSYDGDTQDKNEAAERRDMRVSLPELLAKGFTVLNYNSYYLYIVPKASPTFSQDAAFAAKDVIKNWDLGVWDGRNTKNRVQNTHEIAGAALSIWGEDAKALKDETIQKNTKSLLEAVIHKTNGDE
modifications: Actinobacillus actinomycetemcomitans
detachment of wild-type biofilms from microplate wells ([1]; DispersinB 20 μg/mL in PBS, 5 min, 96-well microplate wells): not from microplate wells | detachment of wild-type biofilms from tubes ([1]; DispersinB 20 μg/mL in PBS, 5 min, polystyrene tubes): rapid detachment | single cells in suspension after disaggregation of biofilms ([1]; biofilms grown in tubes, DispersinB, microscopic analyses (data not shown)): > 99% | attachment of PGA mutant biofilms [2]: no effect | shelf life [3]: approximately 12 months | biofilm formation (S. epidermidis): appreciable effect | killing of biofilm-embedded S. epidermidis [4]: did not significantly kill
